The values that follow come from PMC11284791, “Ribosome External Electric Field Regulates Metabolic Enzyme Activity: The RAMBO Effect” (The Journal of Physical Chemistry. B, 2024).

The stoichiometry N is the number of molecules, sites or subunits per partner or assembly.

This series deals with the molecule itself. The series can be described thus: cross-linking; His-TPI alone with 2 mM BS(PEG)5; 10 mM sodium phosphate pH 7.5, 100 mM NaCl, 10 mM MgCl2, RT, 30 min; SDS-PAGE.

B1: C-terminal His-tagged triosephosphate isomerase from G. gallus (enzyme, UniProt P00940 1-248, looked up)
chain: MAPRKFFVGGNWKMNGDKKSLGELIHTLNGAKLSADTEVVCGAPSIYLDFARQKLDAKIGVAAQNCYKVPKGAFTGEISPAMIKDIGAAWVILGHSERRHVFGESDELIGQKVAHALAEGLGVIACIGEKLDEREAGITEKVVFEQTKAIADNVKDWSKVVLAYEPVWAIGTGKTATPQQAQEVHEKLRGWLKSHVSDAVAQSTRIIYGGSVTGGNCKELASQHDVDGFLVGGASLKPEFVDIINAKH
notes: Triosephosphate isomerase, G. gallus, 248 residues, as m1, with a C-terminal His tag; also called His-TPI; His-tagged TPI; source: E. coli BL21 (DE3), pET-21a(+)-His-TPI, purified (Ni-NTA); not shown: His tag, C-terminal, kept
Regarding B1, the “stoichiometry N” value worked out at 2.
